Assay results as given in US20190031764A1 (Janssen / Centocor, published 2019).

T1: Biotinylated human TIM3-Fc fusion from R&D systems (human, UniProt Q8TDQ0 22-200, biotinylated (site not stated))
T1 construct: Bought reagent; also called CD366; not shown: Fc part of the bought fusion
T1 sequence (looked up): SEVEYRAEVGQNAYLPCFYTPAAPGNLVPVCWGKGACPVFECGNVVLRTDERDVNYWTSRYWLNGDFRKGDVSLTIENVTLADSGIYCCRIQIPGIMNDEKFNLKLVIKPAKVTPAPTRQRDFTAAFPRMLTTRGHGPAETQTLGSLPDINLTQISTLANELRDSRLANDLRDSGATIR


Assays:
[1] = molecular target: T1, Biotinylated human TIM3-Fc fusion from …; test: Ag Binding column; TIM3-Fc ELISA
[2] = molecular target: T2, human PD1 antigen (human, UniProt Q15116 25-167, limits assumed); test: Ag Binding column; PD1 SPR
T2 construct: Injected as analyte (100 nM-0.4 nM) in the ProteOn SPR assay; construct not described; also called CD279
T2 sequence (Q15116 25-167 limits assumed): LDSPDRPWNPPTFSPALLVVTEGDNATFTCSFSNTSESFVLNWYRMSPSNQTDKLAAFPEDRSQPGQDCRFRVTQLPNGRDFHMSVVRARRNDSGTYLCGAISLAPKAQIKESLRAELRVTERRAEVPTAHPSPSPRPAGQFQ

| binding result [1] | binding result [2] | Binder |
| --- | --- | --- |
| binds |  | A88D variant of TIMB337 (antibody, V domains shown, Kabat position 84; also called TIM3 A88D variant; TM3H24 A88D) VH: not shown VL: EIVLTQSPATLSLSPGERATLSCRASQSVNDYLAWYQQKPGQAPRLLIYDASNRATGIPARFSGSGSGTDFTLTISSLEPEDFAVYYCQQGGHAPITFGQGTKVEIK |
|  | binds | S84D variant of PD1B244 (antibody, V domains shown, Kabat position 82a; also called PD1 S84D variant; PD1H170 S84D) VH: QVQLVQSGAEVKKPGSSVKVSCKASGGTFSSYAISWVRQAPGQGLEWMGGIIPIFDTANYAQKFQGRVTITADESTSTAYMELDSLRSEDTAVYYCARPGLAAAYDTGSLDYWGQGTLVTVSS VL: EIVLTQSPATLSLSPGERATLSCRASQSVRSYLAWYQQKPGQAPRLLIYDASNRATGIPARFSGSGSGTDFTLTISSLEPEDFAVYYCQQRNYWPLTFGQGTKVEIK |
| binds |  | N84D variant of TIMB337 (antibody, V domains shown, Kabat position 82a; also called TIM3 N84D variant; TM3H24 N84D) VH: not shown VL: EIVLTQSPATLSLSPGERATLSCRASQSVNDYLAWYQQKPGQAPRLLIYDASNRATGIPARFSGSGSGTDFTLTISSLEPEDFAVYYCQQGGHAPITFGQGTKVEIK |
|  | binds | S88D variant of PD1B244 (antibody, V domains shown, Kabat position 84; also called PD1 S88D variant; PD1H170 S88D) VH: QVQLVQSGAEVKKPGSSVKVSCKASGGTFSSYAISWVRQAPGQGLEWMGGIIPIFDTANYAQKFQGRVTITADESTSTAYMELSSLRDEDTAVYYCARPGLAAAYDTGSLDYWGQGTLVTVSS VL: EIVLTQSPATLSLSPGERATLSCRASQSVRSYLAWYQQKPGQAPRLLIYDASNRATGIPARFSGSGSGTDFTLTISSLEPEDFAVYYCQQRNYWPLTFGQGTKVEIK |
| binds |  | S75D variant of TIMB337 (antibody, V domains shown, Kabat position 74; also called TIM3 S75D variant; TM3H24 S75D) VH: not shown VL: EIVLTQSPATLSLSPGERATLSCRASQSVNDYLAWYQQKPGQAPRLLIYDASNRATGIPARFSGSGSGTDFTLTISSLEPEDFAVYYCQQGGHAPITFGQGTKVEIK |
|  | binds | S75D variant of PD1B244 (antibody, V domains shown, Kabat position 74; also called PD1 S75D variant; PD1H170 S75D) VH: QVQLVQSGAEVKKPGSSVKVSCKASGGTFSSYAISWVRQAPGQGLEWMGGIIPIFDTANYAQKFQGRVTITADEDTSTAYMELSSLRSEDTAVYYCARPGLAAAYDTGSLDYWGQGTLVTVSS VL: EIVLTQSPATLSLSPGERATLSCRASQSVRSYLAWYQQKPGQAPRLLIYDASNRATGIPARFSGSGSGTDFTLTISSLEPEDFAVYYCQQRNYWPLTFGQGTKVEIK |
